According to PMC6566460:

Target: recombinant histone H2B (UniProt P06899)
Experiment: SEC + other: RP-HPLC; synthetic H2A.Z and recombinant H2B unfolded together (7 M Gdn·HCl, 20 mM mercaptoethanol, 20 mM Tris·HCl, pH 7.5; 2 h on ice), dialysed three times against refolding buffer (2.0 M NaCl, 2.0 mM mercaptoethanol, 10 mM Tris·HCl, pH 7.5) at 4 °C for 3 h; SEC of the reconstituted mixture, then RP-HPLC at 280 nm; ratio from peak areas and the number of tyrosines

stoichiometry N: 1
Substance: synthetic histone H2A.Z (from UniProt P0C0S5 1-128) (natural protein)
